Laboratory results as given in article PMC4118853, “Phage Orf Family Recombinases: Conservation of Activities and Involvement of the Central Channel in DNA Binding” (PLoS ONE, 2014).
“And” between values parts separate entries of the source, which are not always exact repeats. Equal values may be shown once.

What was measured:
[1] = molecular target: the molecule itself; test: SEC; 1 mg/ml protein on a 24 ml Superose 6HR 10/30 column in 20 mM Tris-HCl pH8, 1 mM EDTA, 0.5 mM DTT, 250 mM KCl
[2] = molecular target: T1, E. coli SSB (single-stranded DNA binding protein), wild type (E. coli, UniProt P0AGE0 1-178); test: far-Western; purified SSB wt or mutant (0.5-5 µg) separated on 15% SDS-PAGE, blotted to PVDF, probed with 20-30 µg YbcN or Orf fused to MBP or GST; detected with anti-MBP or anti-GST antibodies; details: both partners purified
T1 construct: also called wt SSB; source: purified as described [13]
T1 sequence (P0AGE0 whole entry, the tested form may be a part): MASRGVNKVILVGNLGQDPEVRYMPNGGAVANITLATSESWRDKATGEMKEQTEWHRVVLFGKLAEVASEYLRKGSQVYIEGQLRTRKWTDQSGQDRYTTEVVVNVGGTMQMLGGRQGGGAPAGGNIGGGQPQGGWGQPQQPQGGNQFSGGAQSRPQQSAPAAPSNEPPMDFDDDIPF

[3] = molecular target: the molecule itself; test: SEC; 1 mg/ml protein on a 24 ml Superose 12 HR 10/30 column in 20 mM Tris-HCl pH 8.0, 1 mM EDTA, 0.5 mM DTT, 150 mM KCl
MBP-YbcN = molecular target: T2, MBP-YbcN (Escherichia coli cryptic prophage DLP12 …, UniProt Q47269 1-151); test: fluorescence anisotropy; apparent, per dimer; EMSA: 50 mM Tris-HCl pH 8.0, 5 mM EDTA (or 1 mM MgCl2), 1 mM DTT, 5% glycerol, 100 ug/ml BSA, on ice 15 min, 4% PAGE; anisotropy: 100 mM Tris-HCl pH 7.0, 10 nM; details: protein: recombinant, tags: N-terminal MBP, chain copies: 2
T2 sequence: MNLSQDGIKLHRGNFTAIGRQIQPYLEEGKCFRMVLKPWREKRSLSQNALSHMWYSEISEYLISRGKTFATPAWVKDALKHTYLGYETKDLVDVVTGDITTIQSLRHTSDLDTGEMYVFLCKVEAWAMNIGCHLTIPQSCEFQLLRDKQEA

MBP-Orf Q45A = molecular target: T3, MBP-Orf Q45A (Bacteriophage lambda, UniProt P03765 1-146, Q45A); test: as above; details: protein: recombinant, tags: N-terminal MBP, chain copies: 2
T3 sequence: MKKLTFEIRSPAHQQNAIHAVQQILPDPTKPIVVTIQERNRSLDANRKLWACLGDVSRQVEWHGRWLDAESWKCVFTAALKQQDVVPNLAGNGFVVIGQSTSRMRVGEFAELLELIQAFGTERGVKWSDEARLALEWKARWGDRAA

MBP-Orf V106E = molecular target: T4, MBP-Orf V106E (Bacteriophage lambda, UniProt P03765 1-146, V106E); test: as above; details: protein: recombinant, tags: N-terminal MBP, chain copies: 2
T4 sequence: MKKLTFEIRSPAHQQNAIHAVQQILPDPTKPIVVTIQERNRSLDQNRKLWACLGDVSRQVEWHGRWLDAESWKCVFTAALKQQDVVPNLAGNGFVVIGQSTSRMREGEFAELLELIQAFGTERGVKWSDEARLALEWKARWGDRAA

MBP-Orf K48A = molecular target: T5, MBP-Orf K48A (Bacteriophage lambda, UniProt P03765 1-146, K48A); test: as above; details: protein: recombinant, tags: N-terminal MBP, chain copies: 2
T5 sequence: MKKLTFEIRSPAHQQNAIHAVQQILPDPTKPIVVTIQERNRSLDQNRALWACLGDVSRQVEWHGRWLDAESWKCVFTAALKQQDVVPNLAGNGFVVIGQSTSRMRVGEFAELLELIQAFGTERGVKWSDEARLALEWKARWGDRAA

MBP-Orf W137A = molecular target: T6, MBP-Orf W137A (Bacteriophage lambda, UniProt P03765 1-146, W137A); test: as above; details: protein: recombinant, tags: N-terminal MBP, chain copies: 2
T6 sequence: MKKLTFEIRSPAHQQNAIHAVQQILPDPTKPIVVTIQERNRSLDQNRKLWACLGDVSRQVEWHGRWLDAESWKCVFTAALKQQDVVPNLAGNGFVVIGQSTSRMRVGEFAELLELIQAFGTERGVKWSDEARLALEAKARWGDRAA

MBP-Orf W50A = molecular target: T7, MBP-Orf W50A (Bacteriophage lambda, UniProt P03765 1-146, W50A); test: as above; details: protein: recombinant, tags: N-terminal MBP, chain copies: 2
T7 sequence: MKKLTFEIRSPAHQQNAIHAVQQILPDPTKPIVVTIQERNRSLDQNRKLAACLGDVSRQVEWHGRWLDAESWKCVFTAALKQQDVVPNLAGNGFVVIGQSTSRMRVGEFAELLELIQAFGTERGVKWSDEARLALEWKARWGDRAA

MBP-Orf [4] = molecular target: T8, MBP-Orf (Bacteriophage lambda, UniProt P03765 1-146); test: as above; details: protein: recombinant, tags: N-terminal MBP, chain copies: 2
T8 sequence: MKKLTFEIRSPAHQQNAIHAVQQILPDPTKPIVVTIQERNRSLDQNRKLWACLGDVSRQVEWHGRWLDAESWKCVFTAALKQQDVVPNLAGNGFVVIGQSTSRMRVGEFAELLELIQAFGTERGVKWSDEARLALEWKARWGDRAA

MBP-Orf R103E = molecular target: T9, MBP-Orf R103E (Bacteriophage lambda, UniProt P03765 1-146, R103E); test: fluorescence anisotropy; dash in table; most severely deficient; EMSA: 50 mM Tris-HCl pH 8.0, 5 mM EDTA (or 1 mM MgCl2), 1 mM DTT, 5% glycerol, 100 ug/ml BSA, on ice 15 min, 4% PAGE; anisotropy: 100 mM Tris-HCl pH 7.0, 10 nM; details: protein: recombinant, tags: N-terminal MBP, chain copies: 2
T9 sequence: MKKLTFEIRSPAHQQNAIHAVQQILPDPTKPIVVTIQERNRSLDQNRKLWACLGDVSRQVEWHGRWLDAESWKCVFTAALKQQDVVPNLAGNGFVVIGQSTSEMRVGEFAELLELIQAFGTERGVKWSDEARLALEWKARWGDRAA

MBP-Orf [5] = molecular target: T8, MBP-Orf; test: EMSA; 5 mM EDTA; better than DS60; EMSA: 50 mM Tris-HCl pH 8.0, 5 mM EDTA (or 1 mM MgCl2), 1 mM DTT, 5% glycerol, 100 ug/ml BSA, on ice 15 min, 4% PAGE; anisotropy: 100 mM Tris-HCl pH 7.0, 10 nM; details: protein: recombinant, tags: N-terminal MBP, chain copies: 2, label: 5'-32P on strand 1, blunt
[6] = label: 3'-fluorescein, single strand
[7] = label: 3'-fluorescein on strand 1, blunt, central 20 nt bubble

B1: MBP-YbcN (E. coli maltose binding protein fused to the N-terminus of DLP12 YbcN) (natural protein, E. coli (cryptic prophage DLP12), UniProt Q47269 1-151, looked up)
chain: MNLSQDGIKLHRGNFTAIGRQIQPYLEEGKCFRMVLKPWREKRSLSQNALSHMWYSEISEYLISRGKTFATPAWVKDALKHTYLGYETKDLVDVVTGDITTIQSLRHTSDLDTGEMYVFLCKVEAWAMNIGCHLTIPQSCEFQLLRDKQEA
notes: YbcN (orf151), Orf-family protein of E. coli cryptic prophage DLP12; the gene was amplified from AB1157 genomic DNA, forward primer at the ATG; predicted monomer of the MBP fusion 60.4 kDa; Construct in pMALc2; also called DLP12 MBP-YbcN; orf151; source: E. coli DH5α or BL21 (DE3) Rosetta carrying pLB101, purified (amylose; additional stocks amylose and heparin agarose)
stoichiometry N [1]: 2
binding result [2]: binds

B2: MBP-Orf K48A (natural protein, bacteriophage λ)
chain: MKKLTFEIRSPAHQQNAIHAVQQILPDPTKPIVVTIQERNRSLDQNRALWACLGDVSRQVEWHGRWLDAESWKCVFTAALKQQDVVPNLAGNGFVVIGQSTSRMRVGEFAELLELIQAFGTERGVKWSDEARLALEWKARWGDRAA
notes: Orf (NinB) of bacteriophage λ with K48A; Mutant derivative in pMALc2; One paragraph calls residue 48 Arg48, others Lys48; source: E. coli BL21-AI carrying the pMALc2 construct, purified (amylose) as described [13]
stoichiometry N [3]: 2
binding result [2]: binds

B3: MBP-Orf Q45A (natural protein, bacteriophage λ)
chain: MKKLTFEIRSPAHQQNAIHAVQQILPDPTKPIVVTIQERNRSLDANRKLWACLGDVSRQVEWHGRWLDAESWKCVFTAALKQQDVVPNLAGNGFVVIGQSTSRMRVGEFAELLELIQAFGTERGVKWSDEARLALEWKARWGDRAA
notes: Orf (NinB) of bacteriophage λ with Q45A; Mutant derivative in pMALc2; source: E. coli BL21-AI carrying the pMALc2 construct, purified (amylose, heparin-agarose)
stoichiometry N [3]: 2
binding result [2]: binds

B4: MBP-Orf W50A (natural protein, bacteriophage λ)
chain: MKKLTFEIRSPAHQQNAIHAVQQILPDPTKPIVVTIQERNRSLDQNRKLAACLGDVSRQVEWHGRWLDAESWKCVFTAALKQQDVVPNLAGNGFVVIGQSTSRMRVGEFAELLELIQAFGTERGVKWSDEARLALEWKARWGDRAA
notes: Orf (NinB) of bacteriophage λ with W50A; Mutant derivative in pMALc2; source: E. coli BL21-AI carrying the pMALc2 construct, purified (amylose, heparin-agarose)
stoichiometry N [3]: 2
binding result [2]: binds

B5: MBP-Orf V106E (natural protein, bacteriophage λ)
chain: MKKLTFEIRSPAHQQNAIHAVQQILPDPTKPIVVTIQERNRSLDQNRKLWACLGDVSRQVEWHGRWLDAESWKCVFTAALKQQDVVPNLAGNGFVVIGQSTSRMREGEFAELLELIQAFGTERGVKWSDEARLALEWKARWGDRAA
notes: Orf (NinB) of bacteriophage λ with V106E; Mutant derivative in pMALc2; Tends to form multimers or aggregates; source: E. coli BL21-AI carrying the pMALc2 construct, purified (amylose, heparin-agarose)
stoichiometry N [3]: 2 and 4
binding result [2]: binds

B6: MBP-Orf W137A (natural protein, bacteriophage λ)
chain: MKKLTFEIRSPAHQQNAIHAVQQILPDPTKPIVVTIQERNRSLDQNRKLWACLGDVSRQVEWHGRWLDAESWKCVFTAALKQQDVVPNLAGNGFVVIGQSTSRMRVGEFAELLELIQAFGTERGVKWSDEARLALEAKARWGDRAA
notes: Orf (NinB) of bacteriophage λ with W137A; Mutant derivative in pMALc2; source: E. coli BL21-AI carrying the pMALc2 construct, purified (amylose) as described [13]
stoichiometry N [3]: 2
binding result [2]: binds

B7: MBP-Orf R103E (natural protein, bacteriophage λ)
chain: MKKLTFEIRSPAHQQNAIHAVQQILPDPTKPIVVTIQERNRSLDQNRKLWACLGDVSRQVEWHGRWLDAESWKCVFTAALKQQDVVPNLAGNGFVVIGQSTSEMRVGEFAELLELIQAFGTERGVKWSDEARLALEWKARWGDRAA
notes: Orf (NinB) of bacteriophage λ with R103E; Mutant derivative in pMALc2; source: E. coli BL21-AI carrying the pMALc2 construct, purified (amylose, heparin-agarose)
stoichiometry N [3]: 2
binding result [2]: binds

B8: SS60-fluorescein (ssDNA)
DNA: TTTGGTCTAACTTTACCGCTACTAAATGCCGCGGATTGGTTTCGCTGAATCAGGTTATTA
Kd (MBP-YbcN; [6]): 4600 ± 275 nM
Kd (MBP-Orf Q45A; [6]): 272 ± 20.4 nM
Kd (MBP-Orf V106E; [6]): 522 ± 12.4 nM
Kd (MBP-Orf K48A; [6]): 622 ± 0.7 nM
Kd (MBP-Orf W137A; [6]): 628 ± 99.9 nM
Kd (MBP-Orf W50A; [6]): 3540 ± 288 nM
Kd (MBP-Orf [4]; [6]): 223 ± 72.6 nM
binding result (MBP-Orf R103E; [6]): no binding

B9: BB20-fluorescein (structured_DNA)
DNA 1: TTTGGTCTAACTTTACCGCTACTAAATGCCGCGGATTGGTTTCGCTGAATCAGGTTATTA
DNA 2: TAATAACCTGATTCAGCGAATGACCGATAACGTCCACTTGAGCGGTAAAGTTAGACCAAA
Kd (MBP-YbcN; [7]): 1619 ± 3.2 nM
Kd (MBP-Orf Q45A; [7]): 264 ± 15.2 nM
Kd (MBP-Orf V106E; [7]): 540 ± 73.2 nM
Kd (MBP-Orf K48A; [7]): 551 ± 6.4 nM
Kd (MBP-Orf W137A; [7]): 285 ± 1.9 nM
Kd (MBP-Orf W50A; [7]): 1610 ± 418 nM
Kd (MBP-Orf [4]; [7]): 173 ± 20.9 nM
binding result (MBP-Orf R103E; [7]): no binding

B10: BB5 (structured_DNA)
DNA 1: TTTGGTCTAACTTTACCGCTACTAAATGCCGCGGATTGGTTTCGCTGAATCAGGTTATTA
DNA 2: TAATAACCTGATTCAGCGAAACCAATCGCAACCATTTAGTAGCGGTAAAGTTAGACCAAA
binding result (MBP-Orf [5]; central 5 nt bubble): binds

B11: BB13 (structured_DNA)
DNA 1: TTTGGTCTAACTTTACCGCTACTAAATGCCGCGGATTGGTTTCGCTGAATCAGGTTATTA
DNA 2: TAATAACCTGATTCAGCGAAACATTGTAGGTAAGCTTAGTAGCGGTAAAGTTAGACCAAA
binding result (MBP-Orf [5]; central 13 nt bubble): binds
